{"source": "paper PMC12356973", "binders": {"B1": {"name": "Cap-0 RNA (7MeGppp RNA) (ssRNA)", "RNA": "AUUAAAGGUU", "modifications": "5' m7Gppp cap (Cap-0), Vaccinia capping system"}}, "target": "nsp10 (two [Fe4S4]);nsp16 (SARS-CoV-2;SARS-CoV-2, UniProt P0DTD1;P0DTD1 4254-4392;6799-7096, |)", "experiment": "EMSA", "conditions": "protein: recombinant;recombinant; copies: 1;1; single strand", "data": [{"binder": "B1", "values": [{"measurement": "binding result", "result": "binds"}]}]}
